Data reported in patent US20050058639A1 (AstraZeneca / MedImmune, published 2005).
Positions count from the first letter of the chain named.

T1: recombinant human MCP-2 (human, UniProt P80075 24-99)
T1 construct: also called rhMCP-2
T1 sequence (looked up): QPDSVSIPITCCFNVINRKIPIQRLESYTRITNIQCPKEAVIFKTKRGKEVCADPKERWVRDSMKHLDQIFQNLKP

T2: human GRO/MGSA (human, UniProt P09341 35-107)
T2 construct: also called hGRO/MGSA; GRO-alpha
T2 sequence (looked up): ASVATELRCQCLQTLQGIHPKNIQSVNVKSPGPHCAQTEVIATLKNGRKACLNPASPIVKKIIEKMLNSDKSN

T3: human MIP-1-alpha (human, UniProt P10147 24-92, limits assumed)
T3 construct: also called hMIP-1-alpha
T3 sequence (looked up): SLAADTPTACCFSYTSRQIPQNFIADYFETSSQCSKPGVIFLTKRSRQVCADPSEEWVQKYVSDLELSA

T4: human RANTES (human, UniProt P13501 24-91)
T4 construct: also called hRANTES
T4 sequence (looked up): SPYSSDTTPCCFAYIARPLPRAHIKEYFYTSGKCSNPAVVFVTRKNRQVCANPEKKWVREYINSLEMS

B1: anti-MCP-1 mAb 3.5.1 (antibody, V domains shown)
VH: QVQLVQSGAEVKKPGASVKVSCKVSGYTLSELSMHWVRQAPGKGLEWMGGFDPEDDETIYAQKFQGRVTMTEDTSTDTAFMELSSLRSEDTAVYYCATHDFWSGYFHYWGQGTLVTVSS
VL: DIVMTQSPDSLAVSLGERATINCKSSQSVLYSSDNKSYLVWYQQKPGQPPKVLIYWASIRESGVPDRFSGSGSGTDFTLTISSLQAEDVAVYYCQQYYTSPWTFGQGTKVEIKR
B2: anti-MCP-1 mAb 3.6.1 (antibody, V domains shown)
VH: B1 VH with S30T, D56G, F80Y, T98I, D100E, H107D
VL: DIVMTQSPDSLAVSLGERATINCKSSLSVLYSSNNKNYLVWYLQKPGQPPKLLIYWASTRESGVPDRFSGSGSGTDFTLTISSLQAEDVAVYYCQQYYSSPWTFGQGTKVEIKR
B3: anti-MCP-1 mAb 5.3.1 (antibody, V domains shown)
VH: B1 VH with D56G, F80Y, Y94F, H99K, D100R, F101E, W102Y, H107D
VL: DIVMTQSPDSLAVSLGERATINCKSSQSVLYSSNSKNYLAWFQQKPGQPPKLLIYWASTRESGVPDRFSGSGSGTDFTLTISRLQAEDVAVYSCQQYFITPWTFGQGTKVELKR
B4: anti-MCP-1 mAb 1.9.1 (antibody, V domains shown)
VH: QVQLVQSGAEVKKPGASVKVSCKVSGYTLTELSMHWVRQAPGKGLEWMGGFDPEDGETINAQKFQGRVTMTEDTSTDTGYMELSSLRSEDTAVYYCATDPGGYSGYFDHWGQGTLVTVSS
VL: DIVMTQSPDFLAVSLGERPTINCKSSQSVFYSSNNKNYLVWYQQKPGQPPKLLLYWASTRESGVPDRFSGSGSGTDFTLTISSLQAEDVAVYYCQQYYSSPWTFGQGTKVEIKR
B5: anti-MCP-1 mAb 3.8 (antibody, V domains shown)
VH: B4 VH with D55N, N60H, T69I, G79A, P100Q, H109C
VL: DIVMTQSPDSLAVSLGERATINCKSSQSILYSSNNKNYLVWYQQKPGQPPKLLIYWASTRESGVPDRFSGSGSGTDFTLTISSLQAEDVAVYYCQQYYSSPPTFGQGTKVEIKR
notes: also called 3.8.1
B6: anti-MCP-1 mAb 2.4.1 (antibody, V domains shown)
VH: QVQLVQSGAEVKKPGASVKVSCKASGYTFTGYYLHWVRQAPGQGLEWMGWINPYNDGTNYAQKFQGRVTMTRDTSISTAYMELSRLRSDDTAVYYCARDIAAAGAVYFDYWGQGTLVTVSS
VL: DIQMTQSPSSLSASVGDRVTITCQASQDITTYLNWYQQKPGKAPKLLIYDASNLETGVPSRFSGSGSGTDFTFTISSLQPEDIATYYCQQYDNLPITFGQGTRLEIKR

Biological target: T5, human monocyte chemo-attractant protein-1 (MCP-1) (human, UniProt P13500 24-99)
T5 sequence (P13500 24-99): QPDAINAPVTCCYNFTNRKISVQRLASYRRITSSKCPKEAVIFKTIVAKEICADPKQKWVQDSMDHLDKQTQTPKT
Test: cell-based or functional assay

Row | Binder | IC50 Ca++ Flux [µg/mL] | IC50 Chemotaxis [µg/mL]
1 | B1 | 0.58 | 3.1
2 | B2 | 0.17 | 0.52
3 | B3 | 1.8 | 2.6
4 | B4 | 1.2 | 35
5 | B5 | 0.27 | 0.7
6 | B6 | 0.26 | > 5

Biological target: T5, human monocyte chemo-attractant …
Test: ELISA, hybridoma supernatant on coated MCP-1; ELISA, hybridoma supernatant on plate-coated non-reduced MCP-1 (2 ug/mL)
Experimental: Selection of candidate antibodies for ELISA. After 14 days of culture, hybridoma supernatants were screened for MCP-1-specific monoclonal antibodies. The ELISA plates (Fisher, Cat. No. 12-565-136) were coated with 50 μl/well of MCP-1 (2 μg/mL) in Coating Buffer (0.1 M Carbonate Buffer, pH 9.6, NaHCO₃8.4 g/L), then incubated at 4° C. overnight. After incubation, the plates were washed with Washing Buffer (0.05% Tween 20 in PBS) three times. 200 μl/well Blocking Buffer (0.5% BSA, 0.1% Tween 20, 0.01% Thimerosal in 1× PBS) were added and the plates incubated at room temperature for 1 hour. After incubation, the plates were washed with Washing Buffer three times. 50 μL/well of hybridoma supernatants, and positive and negative controls were added and the plates incubated at room temperature for 2 hours.
The positive control used throughout was XMG2 MCP-1 Group 1, footpad N160-7 and the negative control was XMG2 KLH Group 1, footpad L627-6. After incubation, the plates were washed three times with Washing Buffer. […] In the secondary screen, three sets of samples (positives in first screening) were screened, one set for hIgG detection, one set for hKappa detection, and one set for hlambda detection. After incubation, the plates were washed three times with Washing Buffer. 100 μL/well of TMB (BioFX Lab. Cat. #TMSK-0100-01) were added and the plates allowed to develop for about 10 minutes (until negative control wells barely started to show color), then 50 μL/well stop solution (TMB Stop Solution (BioFX Lab. Cat. #STPR-0100-01) were added and the plates read on an ELISA plate reader at wavelength 450 nm. The OD readings from the positive wells are presented in Table 9.

Row | Binder | ELISA OD-MCP-1 [OD450]
7 | B1 | 3.77
8 | B2 | 3.59
9 | B3 | 4
10 | B4 | 3.66
11 | B5 | 3.6
12 | B6 | 3.89

Biological target: rat MCP-1 (rat, UniProt P14844 24-148)
Sequence (P14844 24-148 limits assumed): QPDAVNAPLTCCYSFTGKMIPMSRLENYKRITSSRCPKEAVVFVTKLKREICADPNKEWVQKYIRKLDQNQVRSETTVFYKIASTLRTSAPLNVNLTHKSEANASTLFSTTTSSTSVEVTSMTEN
Test: ELISA, coated antigen
Procedure, shortened: (§1)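 Plates coated overnight at 4° C with MCP-1, MCP-2, MCP-3, MCP-4, RANTES, GRO-alpha, MIP-1 alpha, eotaxin, rat MCP-1 or mouse JE (2 μg/ml, carbonate buffer pH 9.6), blocked with BSA. Hybridoma supernatants bound 2 hours at room temperature; TMB colour developed about 10 minutes.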

Row | Binder | ELISA OD [OD450]
13 | B1 | 0.053
14 | B2 | 0.046
15 | B3 | 0.047
16 | B4 | 0.065
17 | B5 | 0.062
18 | B6 | 0.077

Biological target: T1, recombinant human MCP-2
Test: ELISA, coated antigen
Procedure, shortened: as §1

Row | Binder | ELISA OD [OD450]
19 | B1 | 0.042
20 | B2 | 0.052
21 | B3 | 0.043
22 | B4 | 0.04
23 | B5 | 0.042
24 | B6 | 0.045

Biological target: T2, human GRO/MGSA
Test: ELISA, coated antigen
Procedure, shortened: as §1

Row | Binder | ELISA OD [OD450]
25 | B1 | 0.048
26 | B2 | 0.047
27 | B3 | 0.045
28 | B4 | 0.043
29 | B5 | 0.046
30 | B6 | 0.048

Biological target: T3, human MIP-1-alpha
Test: ELISA, coated antigen
Procedure, shortened: as §1

Row | Binder | ELISA OD [OD450]
31 | B1 | 0.047
32 | B2 | 0.047
33 | B3 | 0.042
34 | B4 | 0.044
35 | B5 | 0.046
36 | B6 | 0.061

Biological target: T6, recombinant human MCP-4 (human, UniProt Q99616 24-98, limits assumed)
T6 construct: also called rhMCP-4
T6 sequence (Q99616 24-98 limits assumed): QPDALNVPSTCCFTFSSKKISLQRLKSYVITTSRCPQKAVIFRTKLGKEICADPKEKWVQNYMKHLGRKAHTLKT
Test: ELISA, coated antigen
Procedure, shortened: as §1

Row | Binder | ELISA OD [OD450]
37 | B1 | 0.044
38 | B2 | 0.048
39 | B3 | 0.043
40 | B4 | 0.042
41 | B5 | 0.044
42 | B6 | 0.06

Biological target: T7, recombinant mouse JE/MCP-1 (mouse, UniProt P10148 24-148)
T7 construct: also called rmJE/MCP-1
T7 sequence (P10148 24-148 limits assumed): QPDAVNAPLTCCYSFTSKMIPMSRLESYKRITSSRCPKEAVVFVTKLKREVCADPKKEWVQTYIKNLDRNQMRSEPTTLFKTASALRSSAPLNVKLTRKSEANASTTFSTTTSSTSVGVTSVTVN
Test: ELISA, coated antigen
Procedure, shortened: as §1

Row | Binder | ELISA OD [OD450]
43 | B1 | 0.042
44 | B2 | 0.047
45 | B3 | 0.05
46 | B4 | 0.053
47 | B5 | 0.042
48 | B6 | 0.129

Biological target: T8, human eotaxin (human, UniProt P51671 24-97)
T8 construct: also called hEotaxin
T8 sequence (P51671 24-97 limits assumed): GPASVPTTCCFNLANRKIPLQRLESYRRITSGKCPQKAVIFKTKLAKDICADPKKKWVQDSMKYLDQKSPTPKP
Test: ELISA, coated antigen
Procedure, shortened: as §1

Row | Binder | ELISA OD [OD450]
49 | B1 | 0.043
50 | B2 | 0.043
51 | B3 | 0.042
52 | B4 | 0.042
53 | B5 | 0.042
54 | B6 | 0.084

Biological target: T4, human RANTES
Test: ELISA, coated antigen
Procedure, shortened: as §1

Row | Binder | ELISA OD [OD450]
55 | B1 | 0.044
56 | B2 | 0.043
57 | B3 | 0.045
58 | B4 | 0.042
59 | B5 | 0.046
60 | B6 | 0.046

Biological target: T9, recombinant human MCP-3 (human, UniProt P80098 24-99)
T9 construct: also called rhMCP-3
T9 sequence (P80098 24-99 limits assumed): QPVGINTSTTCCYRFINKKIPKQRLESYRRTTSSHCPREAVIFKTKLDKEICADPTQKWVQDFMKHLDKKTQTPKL
Test: ELISA, coated antigen
Procedure, shortened: as §1

Row | Binder | ELISA OD [OD450]
61 | B1 | 0.045
62 | B2 | 0.045
63 | B3 | 0.045
64 | B4 | 0.044
65 | B5 | 0.046
66 | B6 | 0.066

Biological target: T5, human monocyte chemo-attractant …
Test: ELISA, coated antigen; ELISA, purified clone 1:50 on coated hMCP-1 (2 ug/mL), cross-reactivity panel
Experimental: Determining cross-reactivity of anti-MCP-1 antibodies with other chemokines. ELISA plates (Fisher Cat. No. 12-565-136) were coated with 50 μl/well of MCP-1, MCP-2, MCP-3, MCP-4, RANTES, GRO-alpha, MIP-1 alpha, eotaxin, rat MCP-1 and mouse JE (2 μg/ml) in coating buffer (0.1 M carbonate buffer, pH 9.6, NaHCO₃ 8.4 g/L, then incubated at 4° C. overnight. After incubation, the plates were washed with washing buffer (0.05% Tween 20 in PBS) three times. 200 μL/well blocking buffer (0.5% BSA, 0.1% Tween 20, 0.01% Thimerosal in 1×PBS) were added and the plates incubated at room temperature for 1 hour. After incubation, the plates were washed with washing buffer three times. 50 μL/well of hybridoma supernatants, and positive and negative controls (positive control was anti-MCP-1 antibody purchased from R&D Sciences, and negative control was an antibody to Keyhole Limpet Hemocyanin produced at Abgenix) were added and the plates incubated at room temperature for 2 hours. After incubation, the plates were washed three times with washing buffer. […] After incubation, the plates were washed three times with washing buffer and 100 μL/well of TMB (BioFX Lab. Cat. #TMSK-0 100-01) was added and the plates allowed to develop for about 10 minutes.

Row | Binder | ELISA OD [OD450]
67 | B1 | 0.194
68 | B2 | 0.342
69 | B3 | 0.272
70 | B4 | 0.446
71 | B5 | 0.275
72 | B6 | 0.462

Biological target: T5, human monocyte chemo-attractant …
Test: Biacore, mAb immobilized, MCP-1 injected; Biacore, 25 C, native MCP-1 injected over immobilized mAb
Experimental: Determination of anti-MCP-1 antibody affinity using Biacore analysis. The antibody/MCP-1 interaction analysis was performed at 25° C. using two CM5 chips docked in Biacore 3000 optical biosensors. Individual flow cells on each chip were activated with a 7-minute injection of NHS/EDC, carbohydrazide was coupled through the NHS ester using a 7-minute injection, and the residual activated groups were blocked with a 7-minute injection of ethanolamine. The monosaccharide residues of each antibody were oxidized using 1 mM sodium metaperiodate in 100 mM sodium acetate, pH 5.5 at 4° C. for 30 minutes. The oxidized antibody was desalted into 100 mM sodium acetate, pH 5.0, to couple the antibody to the carbohydrazide-modified surface. The mAb surfaces were stabilized by reducing the hydrazone bond with 0.1 M sodium cyanoborohydride. The antigen/antibody interaction was tested by injecting 0, 0.049, 0.15, 0.4, 1.3, 4 and 12 nM of MCP-1 (Peprotech, N.J.) in running buffer (10 mM HEPES, 150 mM NaCl, 0.005% surfactant, 200 μg/ml BSA, pH 7.4). The surfaces were regenerated with a 12-second pulse of 15 mM H₃PO₄. The antigen/antibody interaction was tested by injecting duplicate antigen samples diluted in running buffer (10 mM HEPES, […], 0.005% surfactant, 200 μg/mL BSA, pH 7.4), in a 300-fold concentration range. The surfaces were regenerated with a 12-second pulse of 15 mM H₃PO₄. To determine the kinetics of each interaction, the data sets were fit globally to a 1:1 interaction model that included a parameter for mass transport.

Row | Binder | Kd [pM]
73 | B1 | 100
74 | B2 | 15
75 | B3 | 450
76 | B4 | 96
77 | B5 | 3.4
78 | B6 | 14
